From US20160185837A1 (AstraZeneca / MedImmune, published 2016)
Where a chain is given by its changes, count along the chain named.

T1: human GIP receptor (human, UniProt P48546 22-466)
T1 sequence (looked up): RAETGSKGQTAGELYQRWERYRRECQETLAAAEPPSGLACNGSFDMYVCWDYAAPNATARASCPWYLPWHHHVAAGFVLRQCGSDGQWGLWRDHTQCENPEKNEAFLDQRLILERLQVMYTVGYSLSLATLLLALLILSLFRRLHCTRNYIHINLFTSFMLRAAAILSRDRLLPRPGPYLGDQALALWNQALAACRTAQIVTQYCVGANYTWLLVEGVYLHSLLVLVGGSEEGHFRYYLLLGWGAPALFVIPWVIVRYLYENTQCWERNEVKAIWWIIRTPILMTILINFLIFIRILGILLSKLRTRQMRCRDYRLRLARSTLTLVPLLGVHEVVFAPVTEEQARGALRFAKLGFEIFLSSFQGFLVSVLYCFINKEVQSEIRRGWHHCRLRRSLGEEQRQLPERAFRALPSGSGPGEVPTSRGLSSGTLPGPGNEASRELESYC

T2: mouse GIP receptor (mouse, UniProt Q0P543 19-460)
T2 sequence (looked up): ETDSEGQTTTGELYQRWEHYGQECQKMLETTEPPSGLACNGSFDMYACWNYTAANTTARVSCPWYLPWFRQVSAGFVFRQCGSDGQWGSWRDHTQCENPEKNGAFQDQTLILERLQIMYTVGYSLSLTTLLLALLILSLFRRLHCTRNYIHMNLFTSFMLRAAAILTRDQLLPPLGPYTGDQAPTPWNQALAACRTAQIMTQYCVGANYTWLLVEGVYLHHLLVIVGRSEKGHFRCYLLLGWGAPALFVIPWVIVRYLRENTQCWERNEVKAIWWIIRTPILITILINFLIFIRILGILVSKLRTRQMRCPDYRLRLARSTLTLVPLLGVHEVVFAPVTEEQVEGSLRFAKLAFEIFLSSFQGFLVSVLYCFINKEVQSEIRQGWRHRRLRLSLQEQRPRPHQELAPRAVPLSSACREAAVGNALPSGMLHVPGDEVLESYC

T3: rat GLP-1 receptor (rat, UniProt P32301 22-463)
T3 sequence (looked up): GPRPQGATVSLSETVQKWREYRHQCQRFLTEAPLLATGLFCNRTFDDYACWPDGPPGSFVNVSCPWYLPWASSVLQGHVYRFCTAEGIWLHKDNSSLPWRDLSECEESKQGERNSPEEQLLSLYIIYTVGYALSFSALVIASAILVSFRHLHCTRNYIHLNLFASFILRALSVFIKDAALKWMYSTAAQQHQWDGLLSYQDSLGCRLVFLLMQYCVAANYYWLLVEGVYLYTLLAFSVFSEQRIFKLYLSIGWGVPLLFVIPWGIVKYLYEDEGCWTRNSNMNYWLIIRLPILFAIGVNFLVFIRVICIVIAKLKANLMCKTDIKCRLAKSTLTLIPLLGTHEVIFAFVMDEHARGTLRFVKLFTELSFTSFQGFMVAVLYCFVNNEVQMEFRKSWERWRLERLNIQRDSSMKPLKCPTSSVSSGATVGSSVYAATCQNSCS

T4: rat GIP receptor (rat, UniProt P43219 19-455)
T4 sequence (looked up): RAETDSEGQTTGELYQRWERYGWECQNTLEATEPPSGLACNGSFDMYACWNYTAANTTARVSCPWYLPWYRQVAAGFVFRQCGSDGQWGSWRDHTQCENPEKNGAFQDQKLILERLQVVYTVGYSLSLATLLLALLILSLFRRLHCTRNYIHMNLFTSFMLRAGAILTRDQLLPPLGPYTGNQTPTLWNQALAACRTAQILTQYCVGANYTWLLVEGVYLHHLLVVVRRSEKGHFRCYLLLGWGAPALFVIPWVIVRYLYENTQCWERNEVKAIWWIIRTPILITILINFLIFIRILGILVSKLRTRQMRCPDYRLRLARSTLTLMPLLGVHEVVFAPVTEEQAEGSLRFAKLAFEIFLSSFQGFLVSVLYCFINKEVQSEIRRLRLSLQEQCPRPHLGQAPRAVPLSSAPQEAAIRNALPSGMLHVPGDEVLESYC

T5: mouse GLP-1 receptor (mouse, UniProt O35659 22-463)
T5 sequence (looked up): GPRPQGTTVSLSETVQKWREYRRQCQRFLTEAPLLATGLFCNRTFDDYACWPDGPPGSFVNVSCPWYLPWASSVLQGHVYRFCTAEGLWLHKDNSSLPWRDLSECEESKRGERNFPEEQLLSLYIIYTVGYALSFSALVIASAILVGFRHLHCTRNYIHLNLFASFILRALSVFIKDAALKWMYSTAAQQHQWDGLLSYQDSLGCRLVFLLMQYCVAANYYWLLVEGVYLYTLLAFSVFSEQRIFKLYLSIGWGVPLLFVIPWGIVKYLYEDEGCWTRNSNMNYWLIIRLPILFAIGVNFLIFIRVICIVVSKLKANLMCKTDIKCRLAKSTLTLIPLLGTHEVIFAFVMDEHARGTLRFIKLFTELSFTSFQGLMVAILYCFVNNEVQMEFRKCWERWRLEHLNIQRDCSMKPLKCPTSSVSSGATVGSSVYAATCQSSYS

B1: IP131 (Fc fusion)
chain: YSEGTFTSDYSKLLEEEAVRLFIEWLLAGGGGGGSGGGGSGGGGSGGGGSATHTCPPCPAPEF
B2: IP266 (Fc fusion)
chain: B1 chain with G30A, G31P, G32P
B3: IP258 (Fc fusion)
chain: YSEGTFTSDYSKLLDEEAVRLFIEWLVKGPGGGGGSGGGGSGGGGSGGGGSATHTCPPCPAPEF
B4: IP264 (Fc fusion)
chain: B3 chain with D15E, P30K
B5: IP260 (Fc fusion)
chain: B3 chain with D15E, R20Q
B6: IP259 (Fc fusion)
chain: B3 chain with D15E, E16K
B7: IP263 (Fc fusion)
chain: B3 chain with D15E, G29Q
B8: IP262 (Fc fusion)
chain: B3 chain with D15E, V27L
B9: IP261 (Fc fusion)
chain: B3 chain with D15E, I23V
B10: IP243 (Fc fusion)
chain: YSEGTFTSDYSKLLEEEAQRLFIEWLVKGPAAAGGSGSTASSGSGSATGGGGAATHTCPPCPAPEF
B11: IP212 (Fc fusion)
chain: B10 chain with Q19V, L21E, E24A

What follows are binders tested against human GLP-1 receptor (human, UniProt P43220 24-463) (assay: cell-based or functional assay).

B1 and B2 are within 1.5-fold of each other in “cAMP EC50” value: 0.1 nM for the first, 0.15 nM for the second.

Going from B3 to B4, the “cAMP EC50” value falls from 0.42 nM to 0.1 nM (4.2-fold).

First: B5
Second: B6
The “cAMP EC50” value of the first is 9.1-fold higher: 0.91 nM for the first, 0.1 nM for the second.

B7 and B8 are within 1.5-fold of each other in “cAMP EC50” value: 0.14 nM for the first, 0.21 nM for the second.

First: B9
Second: B10
The “cAMP EC50” value of the first is 1.8-fold lower: 0.14 nM for the first, 0.25 nM for the second.

With B11 the “cAMP EC50” value was 0.087 nM.

B10 was tested, and the “cAMP EC50, Batch 2” value was 0.21 nM.

With B10 the “cAMP EC50, Batch 3” value was 0.17 nM.

Each binder was assayed against human glucagon receptor (human, UniProt P47871 26-477) (assay: cell-based or functional assay).

B1 and B2 are within 1.5-fold of each other in “cAMP EC50” value: 23 nM for the first, 16 nM for the second.

B3 and B4 cannot be ordered by “cAMP EC50” value: over 19000 nM for the first, over 9800 nM for the second.

B5 and B6 cannot be ordered by “cAMP EC50” value: over 16000 nM for the first, over 480 nM for the second.

Compared with B7, B8 is lower in “cAMP EC50” value: over 18000 nM for the first, 63 nM for the second.

B9 and B10 cannot be ordered by “cAMP EC50” value: over 2400 nM for the first, over 2100 nM for the second.

In the case of B11, the “cAMP EC50” value is reported as over 4000 nM.

With B10 the “cAMP EC50, Batch 2” value was 1400 nM.

In the case of B10, the “cAMP EC50, Batch 3” value is reported as 1400 nM.

The binders below were run against T1, human GIP receptor (assay: cell-based or functional assay).

B1 and B2 are within 1.5-fold of each other in “cAMP EC50” value: 0.0091 nM for the first, 0.012 nM for the second.

Going from B3 to B4, the “cAMP EC50” value falls from 0.039 nM to 0.017 nM (2.3-fold).

B5 and B6 are within 1.5-fold of each other in “cAMP EC50” value: 0.033 nM for the first, 0.027 nM for the second.

Going from B7 to B8, the “cAMP EC50” value falls from 0.027 nM to 0.01 nM (2.7-fold).

Compared with B9, B10 is 3-fold lower in “cAMP EC50” value: 0.03 nM for the first, 0.01 nM for the second.

B11 was tested, and the “cAMP EC50” value was 0.0081 nM.

B10 was tested, and the “cAMP EC50, Batch 2” value was 0.0069 nM.

B10 was tested, and the “cAMP EC50, Batch 3” value was 0.0072 nM.

These binders were tested against T2, mouse GIP receptor (assay: cell-based or functional assay).

Going from B1 to B2, the “cAMP EC50” value falls from 5.1 nM to 0.3 nM (17-fold).

Going from B3 to B4, the “cAMP EC50” value falls from 870 nM to 97 nM (9-fold).

Going from B5 to B6, the “cAMP EC50” value falls from 2400 nM to 12 nM (200-fold).

Going from B7 to B8, the “cAMP EC50” value falls from 7000 nM to 3 nM (2300-fold).

Going from B9 to B10, the “cAMP EC50” value falls from 230 nM to 32 nM (7.2-fold).

In the case of B11, the “cAMP EC50” value is reported as 190 nM.

Each binder was assayed against T3, rat GLP-1 receptor (assay: cell-based or functional assay).

First: B1
Second: B2
The “cAMP EC50” value of the first is 3-fold lower: 0.1 nM for the first, 0.3 nM for the second.

Going from B3 to B4, the “cAMP EC50” value falls from 0.12 nM to 0.026 nM (4.6-fold).

Compared with B5, B6 is 8.6-fold lower in “cAMP EC50” value: 0.25 nM for the first, 0.029 nM for the second.

B7 and B8 are within 1.5-fold of each other in “cAMP EC50” value: 0.042 nM for the first, 0.036 nM for the second.

B9 and B10 are within 1.5-fold of each other in “cAMP EC50” value: 0.028 nM for the first, 0.024 nM for the second.

B11 was tested, and the “cAMP EC50” value was 0.034 nM.

These binders were tested against T4, rat GIP receptor (assay: cell-based or functional assay).

First: B1
Second: B2
The “cAMP EC50” value of the first is 6.1-fold higher: 0.23 nM for the first, 0.038 nM for the second.

Compared with B3, B4 is 16-fold lower in “cAMP EC50” value: 1.5 nM for the first, 0.094 nM for the second.

Compared with B5, B6 is 14-fold lower in “cAMP EC50” value: 0.45 nM for the first, 0.033 nM for the second.

Compared with B7, B8 is 58-fold lower in “cAMP EC50” value: 1.1 nM for the first, 0.019 nM for the second.

Compared with B9, B10 is 3-fold lower in “cAMP EC50” value: 0.27 nM for the first, 0.091 nM for the second.

B11 was tested, and the “cAMP EC50” value was 0.12 nM.

The binders below were run against T5, mouse GLP-1 receptor (assay: cell-based or functional assay).

B1 and B2 are within 1.5-fold of each other in “cAMP EC50” value: 1 nM for the first, 0.76 nM for the second.

Going from B3 to B4, the “cAMP EC50” value falls from 2.3 nM to 0.3 nM (7.7-fold).

First: B5
Second: B6
The “cAMP EC50” value of the first is 17-fold higher: 5.3 nM for the first, 0.31 nM for the second.

Going from B7 to B8, the “cAMP EC50” value falls from 0.96 nM to 0.53 nM (1.8-fold).

B9 and B10 are within 1.5-fold of each other in “cAMP EC50” value: 0.34 nM for the first, 0.36 nM for the second.

With B11 the “cAMP EC50” value was 0.35 nM.
